Assay results taken from patent US20230312722A1 (NONA BIOSCIENCES SUZHOU, published 2023).

T1: human B7H4 on the cell surface (human, UniProt Q7Z7D3 25-282)
T1 construct: whole, on cells; also called CHOK1/hu B7H4; B7H4 on SK-BR-3
T1 sequence (looked up): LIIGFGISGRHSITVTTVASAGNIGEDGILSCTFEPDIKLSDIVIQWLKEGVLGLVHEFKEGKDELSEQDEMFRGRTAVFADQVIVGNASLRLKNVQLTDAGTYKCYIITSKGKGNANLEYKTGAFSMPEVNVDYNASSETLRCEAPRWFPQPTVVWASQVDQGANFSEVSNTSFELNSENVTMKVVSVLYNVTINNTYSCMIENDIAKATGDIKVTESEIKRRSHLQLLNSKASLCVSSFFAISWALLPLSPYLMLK

B1: PR002855 (bispecific antibody, human IgG1, kappa, lambda, L234A L235A)
chain 1: EVQLLESGGGLVQPGGSLRLSCAASGFTFSTYAMNWVRQAPGKGLEWVSRIRSKYNNYATYYADSVKDRFTISRDDSKSTLYLQMNSLRAEDTAVYYCVRHGNFGNSYVSWFAYWGQGTLVTVSSASTKGPSVFPLAPSSKSTSGGTAALGCLVKDYFPEPVTVSWNSGALTSGVHTFPAVLQSSGLYSLSSVVTVPSSSLGTQTYICNVNHKPSNTKVDKKVEPKSC
chain 2: QAVVTQEPSLTVSPGGTVTLTCRSSTGAVTTSNYANWVQQKPGQAPRGLIGGTNKRAPWTPARFSGSLLGDKAALTLLGAQPEDEAEYFCALWYSNLWVFGGGTKLTVLGQPKAAPSVTLFPPSSEELQANKATLVCLISDFYPGAVTVAWKADSSPVKAGVETTTPSKQSNNKYAASSYLSLTPEQWKSHRSYSCQVTHEGSTVEKTVAPTECSDKTHTCPPCPAPEAAGGPSVFLFPPKPKDTLMISRTPEVTCVVVDVSHEDPEVKFNWYVDGVEVHNAKTKPREEQYNSTYRVVSVLTVLHQDWLNGKEYKCKVSNKALGAPIEKTISKAKGQPREPQVYTLPPCREEMTKNQVSLWCLVKGFYPSDIAVEWESNGQPENNYKTTPPVLDSDGSFFLYSKLTVDKSRWQQGNVFSCSVMHEALHNHYTQKSLSLSPGK
heavy: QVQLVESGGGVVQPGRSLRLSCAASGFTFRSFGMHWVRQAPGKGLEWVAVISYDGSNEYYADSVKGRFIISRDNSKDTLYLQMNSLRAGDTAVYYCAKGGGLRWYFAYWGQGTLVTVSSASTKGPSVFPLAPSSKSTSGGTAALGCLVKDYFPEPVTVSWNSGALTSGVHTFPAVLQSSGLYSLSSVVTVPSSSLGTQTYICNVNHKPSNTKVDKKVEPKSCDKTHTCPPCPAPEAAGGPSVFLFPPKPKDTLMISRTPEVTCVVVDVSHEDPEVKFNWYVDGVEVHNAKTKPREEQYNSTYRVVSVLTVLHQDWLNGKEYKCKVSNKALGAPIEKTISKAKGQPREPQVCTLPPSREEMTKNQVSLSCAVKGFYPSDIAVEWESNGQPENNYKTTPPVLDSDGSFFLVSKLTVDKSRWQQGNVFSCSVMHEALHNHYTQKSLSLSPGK
light: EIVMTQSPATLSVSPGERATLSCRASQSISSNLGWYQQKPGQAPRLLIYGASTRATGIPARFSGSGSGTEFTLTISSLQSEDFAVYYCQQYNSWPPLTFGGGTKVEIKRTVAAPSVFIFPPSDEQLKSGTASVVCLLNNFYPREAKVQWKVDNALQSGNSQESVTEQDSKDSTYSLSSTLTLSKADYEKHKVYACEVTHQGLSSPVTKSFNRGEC
notes: B7H4 x CD3, 1+1 Fab-Fc-crossFab (structure 4): CD3 Fab(cross Fd/LC) from PR001924 (chains 1 and 2), B7H4 Fab from PR001476 (chains 3 and 4)
B2: PR002987 (bispecific antibody, human IgG1, kappa, lambda, L234A L235A)
chain 1: B1 chain 1
chain 2: not shown
heavy: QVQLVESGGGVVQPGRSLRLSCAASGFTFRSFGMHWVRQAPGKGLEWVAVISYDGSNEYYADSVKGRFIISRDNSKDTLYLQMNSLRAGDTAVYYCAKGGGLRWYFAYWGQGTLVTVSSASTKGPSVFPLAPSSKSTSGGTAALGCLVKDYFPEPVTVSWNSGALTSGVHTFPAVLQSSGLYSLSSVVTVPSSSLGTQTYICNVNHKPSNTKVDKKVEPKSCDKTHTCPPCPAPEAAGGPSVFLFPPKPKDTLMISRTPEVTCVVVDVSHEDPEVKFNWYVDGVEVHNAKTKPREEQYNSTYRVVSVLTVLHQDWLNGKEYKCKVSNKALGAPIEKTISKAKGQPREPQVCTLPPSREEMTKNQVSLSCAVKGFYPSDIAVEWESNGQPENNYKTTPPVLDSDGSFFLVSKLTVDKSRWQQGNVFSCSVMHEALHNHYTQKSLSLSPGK
light: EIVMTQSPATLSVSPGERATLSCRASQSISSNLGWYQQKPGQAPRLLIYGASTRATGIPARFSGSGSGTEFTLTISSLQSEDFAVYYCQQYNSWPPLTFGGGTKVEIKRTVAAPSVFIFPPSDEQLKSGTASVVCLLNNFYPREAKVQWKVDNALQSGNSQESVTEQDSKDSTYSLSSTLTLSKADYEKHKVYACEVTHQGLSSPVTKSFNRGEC
notes: B7H4 x CD3, 2+1 asymmetric structure (structure 5): CD3 end from PR001924, two B7H4 Fabs from PR001476
B3: PR002856 (bispecific antibody, human IgG1, kappa, lambda, L234A L235A)
chain 1: B1 chain 1
chain 2: B1 chain 2
heavy: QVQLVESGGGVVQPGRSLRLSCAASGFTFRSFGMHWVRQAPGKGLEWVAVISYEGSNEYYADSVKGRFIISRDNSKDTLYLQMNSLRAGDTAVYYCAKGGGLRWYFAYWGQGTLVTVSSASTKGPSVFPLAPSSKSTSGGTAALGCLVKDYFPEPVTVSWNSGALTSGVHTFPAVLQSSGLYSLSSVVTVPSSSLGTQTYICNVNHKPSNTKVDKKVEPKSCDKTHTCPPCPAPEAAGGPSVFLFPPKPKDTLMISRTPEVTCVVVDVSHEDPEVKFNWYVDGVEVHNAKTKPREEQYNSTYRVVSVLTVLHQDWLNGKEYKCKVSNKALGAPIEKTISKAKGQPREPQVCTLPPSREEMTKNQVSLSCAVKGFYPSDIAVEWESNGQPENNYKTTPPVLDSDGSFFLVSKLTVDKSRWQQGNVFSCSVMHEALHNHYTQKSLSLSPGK
light: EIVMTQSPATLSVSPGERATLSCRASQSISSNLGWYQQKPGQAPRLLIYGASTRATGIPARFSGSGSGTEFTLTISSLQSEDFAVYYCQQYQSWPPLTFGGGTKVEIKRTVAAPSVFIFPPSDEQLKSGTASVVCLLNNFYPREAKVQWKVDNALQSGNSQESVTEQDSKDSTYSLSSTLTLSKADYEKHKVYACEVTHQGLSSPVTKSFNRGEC
notes: B7H4 x CD3, 1+1 Fab-Fc-crossFab (structure 4): CD3 crossFab from PR001924, B7H4 Fab from PR002405
B4: PR003733 (bispecific antibody, human IgG1, lambda, L234A L235A)
light: QAVVTQEPSLTVSPGGTVTLTCRSSTGAVTTSNYANWVQQKPGQAPRGLIGGTNKRAPWTPARFSGSLLGDKAALTLLGAQPEDEAEYFCALWYSNLWVFGGGTKLTVLGQPKAAPSVTLFPPSSEELQANKATLVCLISDFYPGAVTVAWKADSSPVKAGVETTTPSKQSNNKYAASSYLSLTPEQWKSHRSYSCQVTHEGSTVEKTVAPTECS
heavy: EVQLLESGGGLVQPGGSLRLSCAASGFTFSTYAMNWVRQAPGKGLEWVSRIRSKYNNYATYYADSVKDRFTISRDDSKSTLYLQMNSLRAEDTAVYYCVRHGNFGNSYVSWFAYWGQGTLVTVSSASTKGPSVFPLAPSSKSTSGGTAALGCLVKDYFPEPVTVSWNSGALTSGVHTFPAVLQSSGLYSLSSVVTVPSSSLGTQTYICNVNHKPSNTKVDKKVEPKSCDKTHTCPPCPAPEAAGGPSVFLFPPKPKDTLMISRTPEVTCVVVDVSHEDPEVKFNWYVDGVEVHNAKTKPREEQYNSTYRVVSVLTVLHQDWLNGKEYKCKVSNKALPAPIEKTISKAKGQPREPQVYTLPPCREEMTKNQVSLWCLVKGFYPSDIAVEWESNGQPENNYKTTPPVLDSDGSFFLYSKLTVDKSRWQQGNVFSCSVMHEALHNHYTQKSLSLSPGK
chain: EIVMTQSPASLSVSPGERATLSCRASQSVSSNLAWYQQKPGQAPRLLIYGASTRATGIPARVSGGGSGTEFTLTISSLQSEDFAVYYCQQYKNWPFTFGPGTKLEIKGGGGSGGGGSGGGGSGGGGSQVQLVQSGAEVKKPGSSMRVSCKASEDTFSSYAISWVRQAPGQGLEWMGGTAPIFGTTNYAQKFQGRVTITADKSTSTAYMELSSLRSEDTAVYYCARGGPYFDYWGQGTLVTVSSASEPKSSDKTHTCPPCPAPEAAGGPSVFLFPPKPKDTLMISRTPEVTCVVVDVSHEDPEVKFNWYVDGVEVHNAKTKPREEQYNSTYRVVSVLTVLHQDWLNGKEYKCKVSNKALPAPIEKTISKAKGQPREPQVCTLPPSREEMTKNQVSLSCAVKGFYPSDIAVEWESNGQPENNYKTTPPVLDSDGSFFLVSKLTVDKSRWQQGNVFSCSVMHEALHNHYTQKSLSLSPGK
notes: B7H4 x CD3, 1+1 Fab-Fc-scFv: CD3 Fab from PR001848 (knob, LALA; strong CD3 end), B7H4 scFv(VL-VH)-Fc (hole, LALA)
B5: PR003899 (bispecific antibody, human IgG1, lambda, L234A L235A)
light: B4 light
heavy: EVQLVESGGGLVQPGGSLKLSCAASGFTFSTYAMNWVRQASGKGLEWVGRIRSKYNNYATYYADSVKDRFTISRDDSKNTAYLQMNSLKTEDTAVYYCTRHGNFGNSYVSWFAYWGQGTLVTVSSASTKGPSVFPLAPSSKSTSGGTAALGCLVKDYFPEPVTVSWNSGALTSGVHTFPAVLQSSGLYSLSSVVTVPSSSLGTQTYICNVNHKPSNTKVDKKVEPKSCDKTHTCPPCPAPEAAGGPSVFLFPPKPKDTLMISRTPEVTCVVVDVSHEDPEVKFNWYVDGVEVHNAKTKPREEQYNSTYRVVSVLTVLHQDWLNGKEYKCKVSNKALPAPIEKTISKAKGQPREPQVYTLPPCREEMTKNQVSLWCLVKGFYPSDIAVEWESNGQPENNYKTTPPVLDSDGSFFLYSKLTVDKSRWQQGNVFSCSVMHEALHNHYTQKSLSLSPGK
chain: B4 chain
notes: B7H4 x CD3, 1+1 Fab-Fc-scFv: CD3 Fab from PR003886 (knob, LALA; weak CD3 end), B7H4 scFv(VL-VH)-Fc (hole, LALA)
B6: PR002849 (bispecific antibody, human IgG1, kappa, L234A L235A)
light: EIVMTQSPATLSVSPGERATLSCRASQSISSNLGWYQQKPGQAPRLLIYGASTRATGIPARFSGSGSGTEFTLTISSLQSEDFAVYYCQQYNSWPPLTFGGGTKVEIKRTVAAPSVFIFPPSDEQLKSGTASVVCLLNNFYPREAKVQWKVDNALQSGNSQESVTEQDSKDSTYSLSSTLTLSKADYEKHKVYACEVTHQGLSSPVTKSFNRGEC
heavy: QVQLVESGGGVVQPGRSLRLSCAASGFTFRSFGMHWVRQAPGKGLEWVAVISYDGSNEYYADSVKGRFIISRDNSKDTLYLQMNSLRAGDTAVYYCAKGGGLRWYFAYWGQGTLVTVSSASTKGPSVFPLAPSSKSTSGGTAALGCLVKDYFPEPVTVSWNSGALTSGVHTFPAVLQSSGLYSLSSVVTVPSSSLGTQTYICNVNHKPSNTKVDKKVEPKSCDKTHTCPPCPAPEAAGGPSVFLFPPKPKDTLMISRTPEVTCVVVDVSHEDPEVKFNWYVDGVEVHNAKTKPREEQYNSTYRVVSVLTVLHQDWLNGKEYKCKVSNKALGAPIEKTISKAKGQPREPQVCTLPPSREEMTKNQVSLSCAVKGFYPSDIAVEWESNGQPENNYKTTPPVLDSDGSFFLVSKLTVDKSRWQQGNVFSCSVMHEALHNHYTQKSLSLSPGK
chain: QAVVTQEPSLTVSPGGTVTLTCRSSTGAVTTSNYANWVQQKPGQAPRGLIGGTNKRAPWTPARFSGSLLGDKAALTLLGAQPEDEAEYFCALWYSNLWVFGGGTKLTVLGGGQSGQGGSGGGGSEVQLVESGGGLVQPGGSLKLSCAASGFTFNTYAMNWVRQASGKGLEWVGRIRSKYNNYATYYADSVKDRFTISRDDSKSTLYLQMNSLKTEDTAVYYCVRHGNFGNSYVSWFAYWGQGTLVTVSSASEPKSSDKTHTCPPCPAPEAAGGPSVFLFPPKPKDTLMISRTPEVTCVVVDVSHEDPEVKFNWYVDGVEVHNAKTKPREEQYNSTYRVVSVLTVLHQDWLNGKEYKCKVSNKALGAPIEKTISKAKGQPREPQVYTLPPCREEMTKNQVSLWCLVKGFYPSDIAVEWESNGQPENNYKTTPPVLDSDGSFFLYSKLTVDKSRWQQGNVFSCSVMHEALHNHYTQKSLSLSPGK
notes: B7H4 x CD3, 1+1 Fab-Fc-scFv (structure 1): B7H4 Fab from PR001476 (hole, AAG), CD3 scFv(VL-VH)-Fc from PR000627 (knob, AAG)
B7: PR002850 (bispecific antibody, human IgG1, kappa, L234A L235A)
light: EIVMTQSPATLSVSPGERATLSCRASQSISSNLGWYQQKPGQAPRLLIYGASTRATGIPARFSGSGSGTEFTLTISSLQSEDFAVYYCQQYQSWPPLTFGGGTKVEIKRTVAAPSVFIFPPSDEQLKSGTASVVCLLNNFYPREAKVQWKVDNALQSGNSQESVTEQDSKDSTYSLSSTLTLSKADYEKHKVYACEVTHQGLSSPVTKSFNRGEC
heavy: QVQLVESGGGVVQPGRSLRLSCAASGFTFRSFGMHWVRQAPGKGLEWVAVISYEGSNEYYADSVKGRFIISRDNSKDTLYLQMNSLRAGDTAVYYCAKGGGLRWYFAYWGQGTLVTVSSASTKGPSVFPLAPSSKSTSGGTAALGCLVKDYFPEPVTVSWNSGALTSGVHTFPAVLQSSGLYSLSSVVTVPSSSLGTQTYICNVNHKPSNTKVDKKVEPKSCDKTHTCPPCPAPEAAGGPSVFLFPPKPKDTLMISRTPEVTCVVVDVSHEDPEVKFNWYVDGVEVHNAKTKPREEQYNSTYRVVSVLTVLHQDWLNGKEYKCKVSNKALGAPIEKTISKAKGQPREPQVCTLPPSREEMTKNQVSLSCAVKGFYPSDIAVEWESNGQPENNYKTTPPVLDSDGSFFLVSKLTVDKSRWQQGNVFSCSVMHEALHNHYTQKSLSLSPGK
chain: B6 chain
notes: B7H4 x CD3, 1+1 Fab-Fc-scFv (structure 1): B7H4 Fab from PR002405, CD3 scFv-Fc from PR000627
B8: PR002857 (bispecific antibody, human IgG1, kappa, lambda, L234A L235A)
chain 1: B1 chain 1
chain 2: B1 chain 2
heavy: not shown
light: not shown
notes: B7H4 x CD3, 1+1 Fab-Fc-crossFab (structure 4): CD3 crossFab from PR001924, B7H4 Fab from PR002408
B9: PR002851 (bispecific antibody, human IgG1, kappa, L234A L235A)
light: not shown
heavy: not shown
chain: B6 chain
notes: B7H4 x CD3, 1+1 Fab-Fc-scFv (structure 1): B7H4 Fab from PR002408, CD3 scFv-Fc from PR000627

These binders were tested against T1, human B7H4 on the cell surface (assay: FACS on SK-BR-3 cells).
Description: (§1) SK-BR-3 cells were digested. T cells were isolated using the human T cell isolation kit (Miltenyi, #130-096-535) as described in the method of the instruction, and resuspended with PBS containing 2% BSA. The cell density was adjusted to 1×10⁶ cells/mL. The cells were seeded in a 96-well V-bottom plate (Corning, #3894) at 100 μL/well, followed by the addition of test antibodies diluted in a 3-fold gradient at a concentration that was 2 times the final concentration, each at 100 μL/well. The cells were incubated at 4° C. for 2 h away from light. Thereafter, the cells in each well were rinsed twice with 100 μL of pre-cooled PBS containing 2% BSA, and centrifuged at 500 g at 4° C. for 5 min, and then the supernatant was discarded. Then each well was added with 100 μL of fluorescent secondary antibody (Alexa Fluor 488-conjugated AffiniPure Goat Anti-Human IgG, Fcγ Fragment Specific, Jackson, #109-545-098, diluted in a 1:500 ratio), and the plate was incubated away from light at 4° C. for 1 h. The cells in each well were washed twice with 100 μL of pre-cooled PBS containing 2% BSA, and centrifuged at 500 g at 4° C. for 5 minutes, and then the supernatant was discarded. Finally, the cells in each well were resuspended with 200 μL of pre-cooled PBS containing 2% BSA, and the fluorescence signal values were read using an ACEA Novocyte3000 flow cytometer.

First: B1
Second: B2
The EC50 of the first is 28-fold higher: 4.05 nM for the first, 0.145 nM for the second.

First: B3
Second: B4
The EC50 of the first is 54-fold lower: 1.32 nM for the first, 71.2 nM for the second. The first is the more potent here.

Going from B5 to B6, the EC50 falls from 51.2 nM to 0.933 nM (55-fold).

In the case of B7, the EC50 is reported as 0.676 nM.

Compared with B1, B2 is higher in “Maximum MFI” value: 179000 for the first, 193000 for the second.

Going from B3 to B4, the “Maximum MFI” value rises from 212000 to 214000.

First: B5
Second: B6
The “Maximum MFI” value of the first is higher: 227000 for the first, 146000 for the second.

With B7 the “Maximum MFI” value was 179000.

The binders below were run against T2, CD3 on human T cells (human, UniProt P07766 23-207; P04234 22-171; P09693 23-182) (assay: FACS on human T cells; EC50 printed as n.d., curve still rising at 100 nM).
T2 sequence (P07766 23-207 limits assumed, chain 1 of 3): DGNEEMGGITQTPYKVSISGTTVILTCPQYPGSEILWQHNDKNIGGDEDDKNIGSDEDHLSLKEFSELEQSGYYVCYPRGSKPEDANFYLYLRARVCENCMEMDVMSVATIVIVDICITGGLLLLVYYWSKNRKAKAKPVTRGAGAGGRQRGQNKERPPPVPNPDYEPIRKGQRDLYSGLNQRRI
T2 sequence (P04234 22-171 limits assumed, chain 2 of 3): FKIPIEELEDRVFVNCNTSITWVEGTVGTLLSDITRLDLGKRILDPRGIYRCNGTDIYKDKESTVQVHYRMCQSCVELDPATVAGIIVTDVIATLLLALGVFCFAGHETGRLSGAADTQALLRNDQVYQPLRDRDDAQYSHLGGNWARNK
T2 sequence (P09693 23-182 limits assumed, chain 3 of 3): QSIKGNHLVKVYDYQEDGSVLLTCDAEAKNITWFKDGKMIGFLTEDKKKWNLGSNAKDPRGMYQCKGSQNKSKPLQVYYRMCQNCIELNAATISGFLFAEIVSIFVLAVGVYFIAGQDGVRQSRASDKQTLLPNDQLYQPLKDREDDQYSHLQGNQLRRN
Description: as §1

Compared with B1, B2 is lower in “Maximum MFI” value: 197000 for the first, 73600 for the second.

First: B8
Second: B3
The “Maximum MFI” value of the first is lower: 187000 for the first, 189000 for the second.

Going from B6 to B7, the “Maximum MFI” value rises from 121000 to 133000.

For B9, the “Maximum MFI” value was 125000.

Each binder was assayed against T2, CD3 on human T cells (assay: FACS on human T cells).
Description: as §1

B5: no binding (tested: 100 nM).
